The chains are these.
T1: hIL-18Ra ECD-Fc (human, UniProt Q13478)
T1 chain: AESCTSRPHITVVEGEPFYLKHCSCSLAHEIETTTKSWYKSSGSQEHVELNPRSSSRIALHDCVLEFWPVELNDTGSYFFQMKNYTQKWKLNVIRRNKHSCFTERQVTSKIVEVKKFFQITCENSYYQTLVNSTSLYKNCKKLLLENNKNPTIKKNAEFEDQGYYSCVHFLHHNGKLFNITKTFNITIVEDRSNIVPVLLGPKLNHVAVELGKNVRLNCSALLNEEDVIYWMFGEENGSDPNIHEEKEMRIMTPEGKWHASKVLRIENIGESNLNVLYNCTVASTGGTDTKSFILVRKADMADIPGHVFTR

B1: WM2 (designed binder)
chain: YFPKLRSKLSVIRNLNDQVLFIDQGNRPLFEDMTDSDCRDNAPRTIFIISMYKDSQPRGMAVTISVKCEKISTLSCENKIISFKEMNPPDNIKDTESDIIFFQRSVPGHDNKMQFESSSYEGYFLACEKERDLFKLILKKEDELGDRSIMFTVQNED
B2: WM8 (designed binder)
chain: YFPKLRSKLSVIRNLNDQVLFIDQGNRPLFEDMTDSDCRDNAPRTIFIISMYKDSQPRGMAVTISVKCEKISTLSCENKIISFKEMNPPDSIKDTKSDIIFFQRSVPGHDNKMQFESSSYEGYFLACEKERDLFKLILKKEDELGDRSIMFTVQNED
B3: M6 (designed binder)
chain: YFPKLRSKLSVIRNLNDQVLFIDQGNRPLFEDMTDSDCRDNAPRTIFIISMYKWSTPRGMAVTISVKCEKISTLSCENKIISFKEMNPPDVIKDTKSDIIFFQTSVPGHDNKMQFESSSYEGYFLACEKERDLFKLILKKEDELGDRSIMFTVQNED
B4: M36 (designed binder)
chain: YFPKLSSKLSVIRNLNDQVLFIDQGNRPLFEDMTDSDCRDNAPRTIFIISMYKASDQRGMAVTISVKCEKISTLSCENKIISFKEMNPPDGIKDTKSDIIFFQRSVPGHDNKMQFESSSYEGYFLACEKERDLFKLILKKEDELGDRSIMFTVQNED

The assay addresses T1, hIL-18Ra ECD-Fc. Description: BLI. Background: In BLI a coated tip is dipped into the sample, and binding shifts an interference pattern.
Take B1: the equilibrium dissociation constant (Kd) was more than 1 µM. The figure for B2 is more than 1 µM. The figure for B3 is more than 1 µM; for B4 it is more than 1 µM.

As a reminder, the Kd is the equilibrium constant for the complex coming apart. A lower Kd goes with higher affinity.

Values taken from US20260374834 (published 2026).
